{"source": "paper PMC4191419", "about": "“SSX2 is a novel DNA-binding protein that antagonizes polycomb group body formation and gene repression”", "target": "SSX2 (rSSX2) (UniProt Q16385 1-188)", "sequence (Q16385 whole entry, the tested form may be a part)": "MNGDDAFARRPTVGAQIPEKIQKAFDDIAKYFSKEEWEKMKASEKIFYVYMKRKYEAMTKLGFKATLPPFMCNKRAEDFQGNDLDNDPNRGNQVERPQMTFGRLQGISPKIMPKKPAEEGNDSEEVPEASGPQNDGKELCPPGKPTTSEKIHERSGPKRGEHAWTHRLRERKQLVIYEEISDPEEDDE", "test": "MST; Hill coefficient 3.0; 50 nM DNA; EMSA: 20 mM Tris-HCl pH 7.4, 50 mM NaCl, 1 mM DTT (complexes stable at 75 mM, dissolved at 250 mM NaCl; fragment used not stated); MST: 20 mM Tris-HCl pH 7.4, NaCl printed as 50 nM (probably 50 mM), 0.05% NP40, ambient temperature, 2 h", "settings": "protein: recombinant", "data": [{"binder": "Cy5 random 30-nt dsDNA (dsDNA) DNA 1: CGTCTATACTTTCACAATGTTGACCTGCAC DNA 2: GTGCAGGTCAACATTGTGAAAGTATAGACG", "values": [{"measurement": "Kd", "result": "1800 ± 200", "unit": "nM"}]}]}
